This note sets out measurements from PMC4121237, “Engineering Neprilysin Activity and Specificity to Create a Novel Therapeutic for Alzheimer’s Disease” (PLoS ONE, 2014).

Data set [1] has as its target T1, Aβ1–42 (Homo sapiens, UniProt P05067).
T1 construct: Aβ 1-42^a
The experiment in a line: Endpoint degradation assay with ELISA read-out. Particulars: 1 hour at room temperature; Aβ42 ELISA. The class given is biochemical. As for the experimental part: (§1) Supplementary file pone.0104001.s001.tif: Figure S1 Degradation of Aβ1–40 and Aβ1–42 by NEP wild-type and NEPv. Measurement of the degredation of Aβ1–40 (A) and Aβ1–42 (B) was performed by incubating peptide and either wild-type NEP (▪) or NEPv (Δ) for 1 hour at room temperature. The reaction was stopped by the addition of 1.10-phenanthroline to a final concentration of 10 µM. 50 µl (Aβ40 analysis) or 100 µl (Aβ42 analysis) of the reaction mix was transferred to an ELISA plate. Aβ40 and Aβ42 concentrations after degradation were determined using Invitrogen human Aβ40 ELISA kit (Invitrogen, California, US), and Innotest β-amyloid RUO (1–42) ELISA (Innogenetics, Gent, Belgium). […] (TIF) Click here for additional data file.
A general note: An ELISA detects its analyte on a solid surface through an enzyme-linked reagent.

In data set [2] the test system is Aβ1–40. The experiment in a line: Endpoint degradation assay with ELISA read-out. The following applies: 1 hour at room temperature; Aβ40 ELISA. The class given is biochemical, human. As for the experimental part: as §1
Data set [3] relates to Endothelin-1. The experiment in a line: Steady-state kinetics of endothelin-1 cleavage, stopped assay with RP-HPLC. The class given is biochemical. As for the experimental part:
Kinetic parameters for cleavage of endothelin-1 by NEP were determined using a stopped assay in which the amount of substrate cleaved was measured using reversed-phase HPLC (RP-HPLC). Endothelin-1 was incubated at 12.5–200 µM in the presence of wild type NEP or NEPv and reactions were stopped after 10 min at 37°C by the addition of an equal volume of 1∶1∶1 water:acetonitrile:TFA containing 2 mM tris(2-carboxyethyl)phosphine (Thermo Scientific). RP-HPLC spectra were recorded using an Agilent 1260 Infinity system. Injections of 20 µL were made for each sample and analytes were separated by elution on an Agilent Polaris C8-A stationary phase column (4.6×100 mm, 3 µm) at 1.5 mL min^−1 using a linear binary gradient of 10–90% acetonitrile in water with 0.1% (v/v) TFA over 15 minutes at 40°C. Signal intensity for intact endothelin-1 was monitored at 210 nm and relative peak area was determined by manual integration of the baseline. Kinetic parameters were derived from the activity data as described above.

[4] abbreviates: substrate Endothelin-1 (unlabelled), RP-HPLC, 10 min at 37°C.

T1 sequence (P05067 672-713): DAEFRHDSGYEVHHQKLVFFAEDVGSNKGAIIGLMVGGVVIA

B1: NEPv: lead variant at round 2, human NEP ectodomain with the two mutations G399V and G714K (protein, UniProt P08473 52-750, looked up, variant G399V G714K)
extracellular domain: YDDGICKSSDCIKSAARLIQNMDATTEPCTDFFKYACGGWLKRNVIPETSSRYGNFDILRDELEVVLKDVLQEPKTEDIVAVQKAKALYRSCINESAIDSRGGEPLLKLLPDIYGWPVATENWEQKYGASWTAEKAIAQLNSKYGKKVLINLFVGTDDKNSVNHVIHIDQPRLGLPSRDYYECTGIYKEACTAYVDFMISVARLIRQEERLPIDENQLALEMNKVMELEKEIANATAKPEDRNDPMLLYNKMTLAQIQNNFSLEINGKPFSWLNFTNEIMSTVNISITNEEDVVVYAPEYLTKLKPILTKYSARDLQNLMSWRFIMDLVSSLSRTYKESRNAFRKALYVTTSETATWRRCANYVNGNMENAVGRLYVEAAFAGESKHVVEDLIAQIREVFIQTLDDLTWMDAETKKRAEEKALAIKERIGYPDDIVSNDNKLNNEYLELNYKEDEYFENIIQNLKFSQSKQLKKLREKVDKDEWISGAAVVNAFYSSGRNQIVFPAGILQPPFFSAQQSNSLNYGGIGMVIGHEITHGFDDNGRNFNKDGDLVDWWTQQSASNFKEQSQCMVYQYGNFSWDLAGGQHLNGINTLGENIADNGGLGQAYRAYQNYIKKNGEEKLLPGLDLNHKQLFFLNFAQVWCGTYRPEYAVNSIKTDVHSPKNFRIIGTLQNSAEFSEAFHCRKNSYMNPEKKCRVW
modifications: extracellular domain
One may read the EC50 as the concentration at which the effect is half-maximal. Usually Km stands for the concentration of substrate that gives half-maximal velocity. One may read the kcat as the maximal rate divided by the concentration of active sites. With B1, the EC50 came out at 19.5 nM in data set [1] and 21.3 nM in data set [2]. The Km in data set [3] (setting [4]) is 57 ± 20 µM. Besides, the kcat in data set [3] (setting [4]) was 0.059 ± 0.008 s⁻¹. The “Fold change in kcat/KM” value in data set [3] (substrate Endothelin-1, ratio of wild-type NEP kcat/KM to that of the mutant) was 13.
